Results published in paper PMC5282554, “The intervening domain from MeCP2 enhances the DNA affinity of the methyl binding domain and provides an independent DNA interaction site”.

B1: BDNF promoter IV 45 bp unmethylated (dsDNA)
DNA 1: GCCATGCCCTGGAACGGAACTCTCCTAATAAAAGATGTATCATTT
DNA 2: AAATGATACATCTTTTATTAGGAGAGTTCCGTTCCAGGGCATGGC
B2: BDNF promoter IV 45 bp mCpG (dsDNA)
DNA 1: B1 DNA 1
DNA 2: B1 DNA 2
modifications: 5-methylcytosine at C15 of strand 1 and C30 of strand 2 (symmetric mCpG)

Key:
Conditions in all cases: protein: recombinant; tags: His-tag removed (PreScission); blunt
MeCP2 NTD-MBD-ID [1] = target: T1, MeCP2 NTD-MBD-ID (UniProt P51608 1-206); assay: ITC; pH 7; ID site of two-site model; ITC: Tris 50 mM, pH 7, 20 °C (also 15 and 17.5 °C; Pipes or phosphate 50 mM, pH 7), no added NaCl unless stated; protein 3-5 uM in cell, dsDNA 50 uM titrant
MeCP2 NTD-MBD = MeCP2 NTD-MBD (UniProt P51608 1-162); assay: ITC; pH 7; ITC: Tris 50 mM, pH 7, 20 °C (also 15 and 17.5 °C; Pipes or phosphate 50 mM, pH 7), no added NaCl unless stated; protein 3-5 uM in cell, dsDNA 50 uM titrant
MeCP2 MBD = MeCP2 MBD (UniProt P51608 78-162); assay: as above
MeCP2 NTD-MBD-ID [2] = target: T1, MeCP2 NTD-MBD-ID; assay: ITC; pH 7; MBD site of two-site model; ITC: Tris 50 mM, pH 7, 20 °C (also 15 and 17.5 °C; Pipes or phosphate 50 mM, pH 7), no added NaCl unless stated; protein 3-5 uM in cell, dsDNA 50 uM titrant

Binder | Kd (MeCP2 NTD-MBD-ID [1]) [nM] | Kd (MeCP2 NTD-MBD) [nM] | Kd (MeCP2 MBD) [nM] | Kd (MeCP2 NTD-MBD-ID [2]) [nM]
B1 | 250 | 210 | 450 | 1.9
B2 | 62 | 90 | 240 | 0.56
